T1: human IL-18Rβ ECD Fc fusion (118-AP-100, R&D Systems) (human, UniProt O95256 20-356)
T1 construct: Bought protein; also called hIL-18Rβ; recombinant human IL-18Rb; not shown: Fc tag of the bought fusion protein, not described
T1 sequence: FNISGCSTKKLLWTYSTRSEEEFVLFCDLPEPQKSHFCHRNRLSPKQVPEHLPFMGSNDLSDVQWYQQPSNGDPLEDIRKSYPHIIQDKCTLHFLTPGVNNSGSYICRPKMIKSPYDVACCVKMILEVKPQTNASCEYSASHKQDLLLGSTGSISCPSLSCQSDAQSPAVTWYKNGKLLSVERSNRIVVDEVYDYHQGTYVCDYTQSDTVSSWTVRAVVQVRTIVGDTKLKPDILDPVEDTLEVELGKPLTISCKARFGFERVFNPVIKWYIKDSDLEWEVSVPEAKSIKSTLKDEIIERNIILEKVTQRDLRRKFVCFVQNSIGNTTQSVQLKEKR

B1: 3131 AM2-24 (Fab, V domains shown)
VH: EVQLVESGGGLVQPGGSLRLSCAASGFNLYYSSMHWVRQAPGKGLEWVASIYSSYGYTYYADSVKGRFTISADTSKNTAYLQMNSLRAEDTAVYYCARSSFSHGYGWYGLDYWGQGTLVTVSS
VL: DIQMTQSPSSLSASVGDRVTITCRASQSVSSAVAWYQQKPGKAPKLLIYSDSSLYSGVPSRFSGSRSGTDFTLTISSLQPEDFATYYCQQYGYHYAGLITFGQGTKVEIK
notes: Fab
B2: 3131 AM2-21 (Fab, V domains shown)
VH: EVQLVESGGGLVQPGGSLRLSCAASGFNLYYSSMHWVRQAPGKGLEWVASIYSSYGYTYYADSVKGRFTISADTSKNTAYLQMNSLRAEDTAVYYCARSSFSHGYGWYGLDYWGQGTLVTVSS
VL: DIQMTQSPSSLSASVGDRVTITCRASQSVSSAVAWYQQKPGKAPKLLIYSGSSGRSGVPSRFSGSRSGTDFTLTISSLQPEDFATYYCQQYGYHYAGLITFGQGTKVEIK
notes: Fab
B3: 3131 AM2-15 (Fab, V domains shown)
VH: EVQLVESGGGLVQPGGSLRLSCAASGFNLYYSSMHWVRQAPGKGLEWVASIYSSSGDTGYADSVKGRFTISADTSKNTAYLQMNSLRAEDTAVYYCARSSFSHGYGWYGLDYWGQGTLVTVSS
VL: DIQMTQSPSSLSASVGDRVTITCRASQSVSSAVAWYQQKPGKAPKLLIYSASSLYSGVPSRFSGSRSGTDFTLTISSLQPEDFATYYCQQYGYHYAGLITFGQGTKVEIK
notes: Fab
B4: 3131 AM2-17 (Fab, V domains shown)
VH: EVQLVESGGGLVQPGGSLRLSCAASGFNLYYSSMHWVRQAPGKGLEWVASIYSSHGNTDYADSVKGRFTISADTSKNTAYLQMNSLRAEDTAVYYCARSSFSHGYGWYGLDYWGQGTLVTVSS
VL: DIQMTQSPSSLSASVGDRVTITCRASQSVSSAVAWYQQKPGKAPKLLIYSASSLYSGVPSRFSGSRSGTDFTLTISSLQPEDFATYYCQQYGYHYAGLITFGQGTKVEIK
notes: Fab
B5: 3131 AM2-18 (Fab, V domains shown)
VH: EVQLVESGGGLVQPGGSLRLSCAASGFNLYYSSMHWVRQAPGKGLEWVASIYSSGGSTSYADSVKGRFTISADTSKNTAYLQMNSLRAEDTAVYYCARSSFSHGYGWYGLDYWGQGTLVTVSS
VL: DIQMTQSPSSLSASVGDRVTITCRASQSVSSAVAWYQQKPGKAPKLLIYSASSLYSGVPSRFSGSRSGTDFTLTISSLQPEDFATYYCQQYGYHYAGLITFGQGTKVEIK
notes: Fab
B6: 3131 AM2-1 (Fab, V domains shown)
VH: EVQLVESGGGLVQPGGSLRLSCAASGFNLYYSSMHWVRQAPGKGLEWVASIYSSYGYTYYADSVKGRFTISADTSKNTAYLQMNSLRAEDTAVYYCARSSFSHGYGWYGLDYWGQGTLVTVSS
VL: DIQMTQSPSSLSASVGDRVTITCRASQSVSSAVAWYQQKPGKAPKLLIYSASSLYSGVPSRFSGSRSGTDFTLTISSLQPEDFATYYCQQYGYHHAGLITFGQGTKVEIK
notes: Fab
B7: 3131 AM2-2 (Fab, V domains shown)
VH: EVQLVESGGGLVQPGGSLRLSCAASGFNLYYSSMHWVRQAPGKGLEWVASIYSSHGRTGYADSVKGRFTISADTSKNTAYLQMNSLRAEDTAVYYCARSSFSHGYGWYGLDYWGQGTLVTVSS
VL: DIQMTQSPSSLSASVGDRVTITCRASQSVSSAVAWYQQKPGKAPKLLIYSASSRDSGVPSRFSGSRSGTDFTLTISSLQPEDFATYYCQQYGYHYAGLITFGQGTKVEIK
notes: Fab
B8: 3131 AM2-9 (Fab, V domains shown)
VH: EVQLVESGGGLVQPGGSLRLSCAASGFNLYYSSMHWVRQAPGKGLEWVASIYSSYGYTYYADSVKGRFTISADTSKNTAYLQMNSLRAEDTAVYYCARSSFSHGYGWYGLDYWGQGTLVTVSS
VL: DIQMTQSPSSLSASVGDRVTITCRASQSVSSAVAWYQQKPGKAPKLLIYSASSLYSGVPSRFSGSRSGTDFTLTISSLQPEDFATYYCQQYGYHNAGLITFGQGTKVEIK
notes: Fab
B9: 3131 AM2-14 (Fab, V domains shown)
VH: EVQLVESGGGLVQPGGSLRLSCAASGFNLYYSSMHWVRQAPGKGLEWVASIYSSYGYTYYADSVKGRFTISADTSKNTAYLQMNSLRAEDTAVYYCARSSFSHGYGWYGLDYWGQGTLVTVSS
VL: DIQMTQSPSSLSASVGDRVTITCRASQSVSSAVAWYQQKPGKAPKLLIYSASSLYSGVPSRFSGSRSGTDFTLTISSLQPEDFATYYCQQYGYHGAGLITFGQGTKVEIK
notes: Fab
B10: 3131 AM2-7 (Fab, V domains shown)
VH: EVQLVESGGGLVQPGGSLRLSCAASGFNLYYSSMHWVRQAPGKGLEWVASIYSSHGGTYYADSVKGRFTISADTSKNTAYLQMNSLRAEDTAVYYCARSSFSHGYGWYGLDYWGQGTLVTVSS
VL: DIQMTQSPSSLSASVGDRVTITCRASQSVSSAVAWYQQKPGKAPKLLIYSASSLYSGVPSRFSGSRSGTDFTLTISSLQPEDFATYYCQQYGYHDAGLITFGQGTKVEIK
notes: Fab
B11: 3131 AM2-5 (Fab, V domains shown)
VH: EVQLVESGGGLVQPGGSLRLSCAASGFNLYYSSMHWVRQAPGKGLEWVASIYSSSGDTHYADSVKGRFTISADTSKNTAYLQMNSLRAEDTAVYYCARSSFSHGYGWYGLDYWGQGTLVTVSS
VL: DIQMTQSPSSLSASVGDRVTITCRASQSVSSAVAWYQQKPGKAPKLLIYSASSLYSGVPSRFSGSRSGTDFTLTISSLQPEDFATYYCQQYGYHYAGLITFGQGTKVEIK
notes: Fab
B12: 3131 AM2-4 (Fab, V domains shown)
VH: EVQLVESGGGLVQPGGSLRLSCAASGFNLYYSSMHWVRQAPGKGLEWVASIYSSSGSTCYADSVKGRFTISADTSKNTAYLQMNSLRAEDTAVYYCARSSFSHGYGWYGLDYWGQGTLVTVSS
VL: DIQMTQSPSSLSASVGDRVTITCRASQSVSSAVAWYQQKPGKAPKLLIYSASSLYSGVPSRFSGSRSGTDFTLTISSLQPEDFATYYCQQYGYHYAGLITFGQGTKVEIK
notes: Fab
B13: 3131 AM2-13 (Fab, V domains shown)
VH: EVQLVESGGGLVQPGGSLRLSCAASGFNLYYSSMHWVRQAPGKGLEWVASIYSSYGYTYYADSVKGRFTISADTSKNTAYLQMNSLRAEDTAVYYCARSSFSHGYGWYGLDYWGQGTLVTVSS
VL: DIQMTQSPSSLSASVGDRVTITCRASQSVSSAVAWYQQKPGKAPKLLIYSASSLYSGVPSRFSGSRSGTDFTLTISSLQPEDFATYYCQQYGYHDAGLITFGQGTKVEIK
notes: Fab
B14: 3131 AM2-6 (Fab, V domains shown)
VH: EVQLVESGGGLVQPGGSLRLSCAASGFNLYYSSMHWVRQAPGKGLEWVASIYSSHGGTNYADSVKGRFTISADTSKNTAYLQMNSLRAEDTAVYYCARSSFSHGYGWYGLDYWGQGTLVTVSS
VL: DIQMTQSPSSLSASVGDRVTITCRASQSVSSAVAWYQQKPGKAPKLLIYSASSLYSGVPSRFSGSRSGTDFTLTISSLQPEDFATYYCQQYGYHYAGLITFGQGTKVEIK
notes: Fab
B15: 3131 AM2-3 (Fab, V domains shown)
VH: EVQLVESGGGLVQPGGSLRLSCAASGFNLYYSSMHWVRQAPGKGLEWVASIYSSSGYTSYADSVKGRFTISADTSKNTAYLQMNSLRAEDTAVYYCARSSFSHGYGWYGLDYWGQGTLVTVSS
VL: DIQMTQSPSSLSASVGDRVTITCRASQSVSSAVAWYQQKPGKAPKLLIYSASSLYSGVPSRFSGSRSGTDFTLTISSLQPEDFATYYCQQYGYHYAGLITFGQGTKVEIK
notes: Fab

The target in the first assay is T1, human IL-18Rβ ECD Fc fusion …. The experiment in a line: ELISA on recombinant human IL-18Rβ, normalised OD 450 nm, Fab with PBS or with saturating IgG 3131 [middle plot]. The text has this: (§1) The results are presented in FIG. 9, in which the binding signals for purified. […] Error bars represent standard deviation of replicate measurements.
(In general: ELISA stands for enzyme-linked immunosorbent assay.)
Turning to B1, the binding result is “binds”.

In the case of B2, the binding result is recorded as “binds”.

As for B3, the binding result was “binds”.

Regarding B4, the binding result is “binds”.

Regarding B5, the binding result was “binds”.

The target is the same in another assay. The assay is described as follows: ELISA on recombinant human IL-18Rβ, normalised OD 450 nm, Fab with PBS or with saturating IgG 3131 [top plot].
Excerpt: as §1
Take B6: the binding result is “binds”.

B7: the binding result is “binds”.

Regarding B8, the binding result was “binds”.

For B9, the binding result is given as “binds”.

With B10, the binding result was “binds”.

Take B11: the binding result is on record as “binds”.

With B12, the binding result is “binds”.

On to B13, for which the binding result is given as “binds”.

As to B14, the binding result is on record as “binds”.

B15: the binding result was “binds”.

These data come from US20240262919A1 (SHANGHAITECH UNIVERSITY, published 2024).
